Values of other authors, collected in paper doi:10.1101/2023.06.05.542125.
Where two headings read alike, the source gives them in different places.

Tests used:
[1] = biological target: RNA polymerase elongation complex (Escherichia coli) (UniProt P0A7Z4)
[2] = biological target: RNA polymerase elongation complex (Escherichia coli) (UniProt P0A7Z4); remark: listed apart in the source

Sequence of GreB (P30128 whole entry): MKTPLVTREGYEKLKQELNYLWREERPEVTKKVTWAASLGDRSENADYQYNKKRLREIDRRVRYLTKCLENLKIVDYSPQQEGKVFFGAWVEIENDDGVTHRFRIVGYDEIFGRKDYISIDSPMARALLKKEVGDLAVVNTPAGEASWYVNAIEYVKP
Sequence of GreA (P0A6W5 whole entry): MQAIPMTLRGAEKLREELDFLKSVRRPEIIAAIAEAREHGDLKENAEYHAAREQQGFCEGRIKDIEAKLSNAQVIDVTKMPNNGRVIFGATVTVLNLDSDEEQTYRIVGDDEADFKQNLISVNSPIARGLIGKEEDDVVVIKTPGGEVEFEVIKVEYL

| Substance | Kd [1] | Kd [2] |
| --- | --- | --- |
| GreA (from UniProt P0A6W5) | 1000 nM | – |
| GreB (from UniProt P30128) | – | 100 nM |
